Series [1] addresses T1, single-headed human beta-cardiac myosin S1 (cS1), MYH7 residues 1 to 834 fused to GFP and FLAG (human, UniProt P12883 1-834).
T1 construct: beta-cardiac myosin heavy chain (MYH7), human, residues 1 to 834, followed by a short linker, a GFP domain and a FLAG tag; also called cS1gfp
Nature of the series: cross-linking; quantitative XL-MS with DSBU (600 μM, 20 min, 25°C) on 4 μM purified cS1 with bound light chains, 10 mM Mops pH 7.3, 50 mM KCl, 1 mM ATP, with 50 μM mavacamten or DMSO. Conditions: both partners purified.

Series [2] concerns the molecule itself. The series can be described thus: cryo-EM structure; IHM_(mava): 2 μM cHMM with 1 mM ATP, 50 μM mavacamten (5% DMSO), cross-linked with 1 mM BS3, 50 mM KCl, 10 mM Mops pH 7; Lacey continuous carbon grid; ADP.Pi state; 3.7 Å.

This is an account of results in publication PMC13127578, “Mavacamten inhibits myosin activity by stabilizing the myosin interacting-heads motif and stalling motor force generation” (Science Advances, 2026).

B1: human MYL3 (vLC1), ventricular essential light chain (natural protein)
chain: not shown
notes: myosin essential light chain MYL3 (vLC1), human; also called ELC
Consider B1, for which the binding result in series [1] was “binds”.

B2: human MYL2 (vLC2), ventricular regulatory light chain (natural protein, UniProt P10916 1-166, looked up)
chain: MAPKKAKKRAGGANSNVFSMFEQTQIQEFKEAFTIMDQNRDGFIDKNDLRDTFAALGRVNVKNEEIDEMIKEAPGPINFTVFLTMFGEKLKGADPEETILNAFKVFDPEGKGVLKADYVREMLTTQAERFSKEEVDQMFAAFPPDVTGNLDYKNLVHIITHGEEKD
notes: myosin regulatory light chain MYL2 (vLC2), human; also called RLC
For B2, in series [1], the binding result was “binds”.

B3: human beta-cardiac heavy meromyosin (β-cHMM) heavy chain, MYH7 residues 1 to 1137 (domain or fragment, UniProt P12883 1-1137, looked up)
chain: MGDSEMAVFGAAAPYLRKSEKERLEAQTRPFDLKKDVFVPDDKQEFVKAKIVSREGGKVTAETEYGKTVTVKEDQVMQQNPPKFDKIEDMAMLTFLHEPAVLYNLKDRYGSWMIYTYSGLFCVTVNPYKWLPVYTPEVVAAYRGKKRSEAPPHIFSISDNAYQYMLTDRENQSILITGESGAGKTVNTKRVIQYFAVIAAIGDRSKKDQSPGKGTLEDQIIQANPALEAFGNAKTVRNDNSSRFGKFIRIHFGATGKLASADIETYLLEKSRVIFQLKAERDYHIFYQILSNKKPELLDMLLITNNPYDYAFISQGETTVASIDDAEELMATDNAFDVLGFTSEEKNSMYKLTGAIMHFGNMKFKLKQREEQAEPDGTEEADKSAYLMGLNSADLLKGLCHPRVKVGNEYVTKGQNVQQVIYATGALAKAVYERMFNWMVTRINATLETKQPRQYFIGVLDIAGFEIFDFNSFEQLCINFTNEKLQQFFNHHMFVLEQEEYKKEGIEWTFIDFGMDLQACIDLIEKPMGIMSILEEECMFPKATDMTFKAKLFDNHLGKSANFQKPRNIKGKPEAHFSLIHYAGIVDYNIIGWLQKNKDPLNETVVGLYQKSSLKLLSTLFANYAGADAPIEKGKGKAKKGSSFQTVSALHRENLNKLMTNLRSTHPHFVRCIIPNETKSPGVMDNPLVMHQLRCNGVLEGIRICRKGFPNRILYGDFRQRYRILNPAAIPEGQFIDSRKGAEKLLSSLDIDHNQYKFGHTKVFFKAGLLGLLEEMRDERLSRIITRIQAQSRGVLARMEYKKLLERRDSLLVIQWNIRAFMGVKNWPWMKLYFKIKPLLKSAEREKEMASMKEEFTRLKEALEKSEARRKELEEKMVSLLQEKNDLQLQVQAEQDNLADAEERCDQLIKNKIQLEAKVKEMNERLEDEEEMNAELTAKKRKLEDECSELKRDIDDLELTLAKVEKEKHATENKVKNLTEEMAGLDEIIAKLTKEKKALQEAHQQALDDLQAEEDKVNTLTKAKVKLEQQVDDLEGSLEQEKKVRMDLERAKRKLEGDLKLTQESIMDLENDKQQLDERLKKKDFELNALNARIEDEQALGSQLQKKLKELQARIEELEEELEAERTARAKVEKLRS
notes: FLAG tag at 1138 to 1146; Two heavy chains form the two-headed cHMM; in the sample each carries a mouse ELC and RLC; For cryo-EM and negative stain the sample was cross-linked with BS3 in the presence of ATP; also called βCM; beta-cardiac myosin
B3: the binding result in series [2] is reported as “binds”.
